# Test results reported in patent US20260092084A1, “PEPTIDE AND ASSEMBLY OR COMPOSITION CONTAINING SAID PEPTIDE” (priority 2022, published 2026).
# Square brackets hold non-standard residues; d marks the D form. Ends that are not written are not given here. * marks the point of attachment. 5(6)‑FAM = 5(6)-carboxyfluorescein; pS = N[C@@H](COP(=O)(O)O)C(=O)O; Tfa = O=C(C(F)(F)F)*
# B1: peptide of Example 1-2 (DSpSEEKW-LLELLELL-RRKRR) (peptide)
# peptide: DSSEEKWLLELLELLRRKRR
# modifications: pS = phosphorylated serine (third residue of DSpSEEKW); C-terminal carboxyl group amidated
# What was measured:
# [1] = mouse, in vivo
# Procedure: Three kinds of fluorescein (FAM)-labeled peptides shown in Table 7 were purchased from Eurofins Genomics K.K. 1 mg of each of the peptides was separately dissolved in 4 mL of PBS to prepare an administration solution (0.25 mg/mL).
# Eighteen Crl:CD1 (ICR) mice (male) (Jackson Laboratory Japan, Inc.) were subjected to 7 or more days of adaptation after their arrival and receipt, then divided by three per group into the six groups as in Table 8, and used in the following experiments. The administration solution (1 mg/4 mL/kg) was administered to the tail vein of a non-fasting mouse through use of a syringe equipped with an injection needle. A dose for each individual was calculated from a body weight measured on the day of the administration.
# After the completion of the administration, about 0.1 mL of blood was collected from a jugular vein without anesthesia at the predetermined time points of collection shown in Table 8 through use of a heparin-treated syringe equipped with an injection needle. At the final time point of collection, whole blood was collected from a posterior aorta under isoflurane anesthesia. The collected blood was promptly transferred to a polypropylene tube and cooled on ice. The collected whole blood was centrifuged (about 10,000×g, 3 minutes, 4° C.), and the plasma sample was promptly dispensed and light-shielded in a sample storage container. The plasma samples were cryopreserved until measurement (control temperature: about −80° C.).
# A freeze-thawed plasma sample (10 μL) was diluted 10-fold with PBS (90 μL), and measured for its fluorescence intensity with a plate reader (SPARK™ multi-detection mode microplate reader, Tecan Group Ltd.) (excitation wavelength: 495 nm; emission wavelength: 520 nm). […] The peptide concentrations in plasma thus obtained were logarithmically plotted against post-administration time, four time points including the final blood collection point were exponentially approximated (Microsoft Excel, Microsoft Corporation), and an elimination half-life was calculated from a slope of the straight line. […]
# [2] = Average particle diameter of peptide assembly by dynamic light scattering; assay type: physicochemical; settings: 10 mM HEPES, 150 mM NaCl buffer (pH 7); 40 mM DMSO stock diluted 100-fold; stood overnight; 25° C.; main peak of scattering intensity
# Procedure: 5 mg of each of the peptides of Examples 1-1 to 1-5 and Reference Examples 1-1 to 1-8 was dissolved in dimethyl sulfoxide (DMSO) to provide a stock solution (40 mM). To a 10 mM HEPES and 150 mM NaCl buffer (pH 7) under stirring with a micromixer (E-36, Taitec Corporation), 4 μL of the stock solution was dropped to be diluted 100-fold. The dilution was vortexed and then left to stand still at room temperature overnight. Then, 200 μL of the dilution was used as a measurement sample and measurement of particle diameter distribution was performed at 25° C. by dynamic light scattering with Litesizer 500 (Anton Paar GmBH). The results determined by defining the main peak of a scattering intensity as the average particle diameter of an assembly are shown in Table 3. Provided that, when a polydispersity index was more than 20%, the main peak was determined with further reference to a volume-based particle diameter distribution.
# [3] = Binding affinity to first target (HA): adsorption isotherm on hydroxyapatite beads; settings: hydroxyapatite magnetic beads; 10 mM HEPES (pH 7.4)/1% DMSO; 4° C., 4 hours; tryptophan fluorescence; read-out: Dissociation constant (KD)
# Procedure: The peptides of Examples 1-2 and 1-5 and a HA-binding peptide A (DSpSEEKW: SEQ ID NO: 17) forming the HA binding site of each of the peptides were each evaluated for peptide binding affinity to hydroxyapatite beads (1 μm BcMag™ Hydroxyapatite Magnetic Particles (Bioclone Inc., catalog No. FO-101)). Specifically, the beads were weighed and suspended in a 100 mM sodium phosphate buffer (pH 7.4)/20% ethanol so as to have 30 mg/mL. 267 μL of the suspension of the beads ultrasonicated to be dispersed homogenously was dispensed in a 1.5 mL tube. The beads were fixed with a magnetic stand (Takara Bio Inc., Magnetic Stand (6 tubes), product code: 5328), followed by removal of a supernatant, and then 100 μL of a peptide solution was added. The peptide solution was prepared by diluting the 100 mM stock solution (in DMSO) to 40 μM with 10 mM HEPES (pH 7.4)/1% DMSO and further serially diluting the solution from 4-fold to 5-fold. After stirring at 4° C. for 4 hours, the tube was stood in the magnetic stand for fixing the beads, and a supernatant was recovered. A peptide concentration in the supernatant was measured with a plate reader (VARIO-SCAN, Thermo Fischer Scientific Inc.) based on a fluorescence intensity derived from tryptophan in a sequence (excitation wavelength: 280 nm; emission wavelength: 355 nm) through use of 50 μL of the supernatant. The amount of the peptide bound to the beads was determined by subtracting the peptide concentration in the supernatant from a total peptide concentration, and the adsorption isotherm thus obtained was subjected to curve fitting to a theoretical formula (Microsoft Excel, Microsoft Corporation), thereby determining a dissociation constant KD of the peptide to the hydroxyapatite beads.
# [4] = biological target: Arg-gingipain (Rgp); assay: Binding affinity to second target (Rgp) by SPR (Biacore-T100); settings: immobilized Rgp, 10 mM HEPES (pH 7.4), 150 mM NaCl, 0.05% Tween, 0.2% DMSO, peptide 25-1,600 nM, read-out: Dissociation constant (KD)
# Procedure: The peptide of Example 1-2 and an Rgp-binding peptide A (RRKRR: SEQ ID NO: 16) forming the Rgp binding site of the peptide were each measured for its binding affinity to Rgp by SPR using “Biacore-T100” (GE Healthcare). The measurement was performed according to a common method. Specifically, the measurement of the peptide of Example 1-2 was performed through bonding streptavidin (Extravidin SIGMA E2511) to a chip (CM5 sensor chip) by amine coupling, and then immobilizing Rgp biotinylated with a 20-fold molar ratio of an NHS-biotinylation reagent (EZ-Link™ Sulfo-NHS-SS-Biotin, Thermo Fischer Scientific Inc.). Meanwhile, the measurement of the Rgp-binding peptide A was performed through directly immobilizing Rgp on a CM5 sensor chip by amine coupling from the viewpoint of measurement sensitivity.
# Next, the peptide stock solution (in DMSO) was diluted with a running buffer (10 mM HEPES (pH 7.4), 150 mM NaCl, 0.05% Tween, 0.2% DMSO) to prepare peptide solutions having final peptide concentrations of 25 nM, 100 nM, 400 nM, and 1,600 nM. Those peptide solutions having the four concentrations were used to provide sensorgrams indicating weight changes caused by binding between Rgp immobilized on the chip and the peptide. […]
# [5] = pH dependency of particle diameter of peptide assembly (dynamic light scattering); assay type: physicochemical; settings: 25° C.; for Average particle diameter, pH 6: 10 mM MES, 150 mM NaCl buffer (pH 6.0); for Average particle diameter, pH 7: dilution A (pH 6.0) diluted with 10 mM HEPES, 150 mM NaCl buffer (pH 7.4)
# Procedure: 5 mg of each of the peptides of Examples 2-1 and 2-2 was dissolved in DMSO to provide a stock solution (50 mg/mL). To a 10 mM MES and 150 mM NaCl buffer (pH 6.0) under stirring with a micromixer (E-36, Taitec Corporation), 4 μL of the stock solution was dropped to be diluted 100-fold. Thus, a dilution A was obtained. The dilution A was vortexed and then left to stand still at room temperature overnight. 100 μL of the dilution A was used and diluted with 300 μL of the same MES buffer or a 10 mM HEPES and 150 mM NaCl buffer (pH 7.4), and stirred for 1 hour. Thus, a dilution B was obtained. 200 μL of each of the dilution A and the dilution B after having been left to stand still overnight was used as a measurement sample and measurement of particle diameter distribution was performed at 25° C. with Litesizer 500 (Anton Paar GmBH).
# [6] = biological target: Arg-gingipain (Rgp); assay: SPR (Biacore T100); Rgp amine-coupled directly to CM5 chip; peptide as analyte at 25-1,600 nM
# [7] = biological target: Arg-gingipain (Rgp); assay: SPR (Biacore T100); biotinylated Rgp captured on streptavidin-coupled CM5 chip; peptide as analyte at 25-1,600 nM; KD per peptide
molecule,measurement,setting,value
5(6)-FAM-GYSEWRKWEL ({5(6)‑FAM}-GYSEWRKWEL-NH2) [Comparative Example 1],Elimination half-life,[1],1.3 h
5(6)-FAM-GYSEWRKWEL-LLLLLL ({5(6)‑FAM}-GYSEWRKWELLLLLLL-NH2) [Comparative Example 2],Elimination half-life,[1],16.7 h
5(6)-FAM-GYSEWRKWEL-LLLLLLGG-HWRGWV ({5(6)‑FAM}-GYSEWRKWELLLLLLLGGHWRGWV-NH2) [Example 3-1],Elimination half-life,[1],133 h
DSpSEEK-AAEAAEAA-RRK(Tfa)RR (DS[pS]EEKAAEAAEAARRK(Tfa)RR-NH2; N-terminus assumed; SMILES C[C@H](NC(=O)[C@H](C)NC(=O)[C@H](CCC(=O)O)NC(=O)[C@H](C)NC(=O)[C@H](C)NC(=O)[C@H](CCCCN)NC(=O)[C@H](CCC(=O)O)NC(=O)[C@H](CCC(=O)O)NC(=O)[C@H](COP(=O)(O)O)NC(=O)[C@H](CO)NC(=O)[C@@H](N)CC(=O)O)C(=O)N[C@@H](CCC(=O)O)C(=O)N[C@@H](C)C(=O)N[C@@H](C)C(=O)N[C@@H](CCCNC(=N)N)C(=O)N[C@@H](CCCNC(=N)N)C(=O)N[C@@H](CCCCNC(=O)C(F)(F)F)C(=O)N[C@@H](CCCNC(=N)N)C(=O)N[C@@H](CCCNC(=N)N)C(N)=O) [Example 1-4],Average particle diameter,[2],450 nm
"DSpSEEKW (DS[pS]EEKW) [HA-binding peptide A, reference compound]",Kd,[3],710 nM
DSpSEEKW-LLELLELL-KGKILRPR (DS[pS]EEKWLLELLELLKGKILRPR-NH2; N-terminus assumed; SMILES CC[C@H](C)[C@H](NC(=O)[C@H](CCCCN)NC(=O)CNC(=O)[C@H](CCCCN)NC(=O)[C@H](CC(C)C)NC(=O)[C@H](CC(C)C)NC(=O)[C@H](CCC(=O)O)NC(=O)[C@H](CC(C)C)NC(=O)[C@H](CC(C)C)NC(=O)[C@H](CCC(=O)O)NC(=O)[C@H](CC(C)C)NC(=O)[C@H](CC(C)C)NC(=O)[C@H](Cc1c[nH]c2ccccc12)NC(=O)[C@H](CCCCN)NC(=O)[C@H](CCC(=O)O)NC(=O)[C@H](CCC(=O)O)NC(=O)[C@H](COP(=O)(O)O)NC(=O)[C@H](CO)NC(=O)[C@@H](N)CC(=O)O)C(=O)N[C@@H](CC(C)C)C(=O)N[C@@H](CCCNC(=N)N)C(=O)N1CCC[C@H]1C(=O)N[C@@H](CCCNC(=N)N)C(N)=O) [Example 1-5],Average particle diameter,[2],5 nm
same,Kd,[3],< 40 nM
DSpSEEKW-LLELLELL-RRKRR (DS[pS]EEKWLLELLELLRRKRR-NH2; N-terminus assumed; SMILES CC(C)C[C@H](NC(=O)[C@H](CC(C)C)NC(=O)[C@H](CCC(=O)O)NC(=O)[C@H](CC(C)C)NC(=O)[C@H](CC(C)C)NC(=O)[C@H](CCC(=O)O)NC(=O)[C@H](CC(C)C)NC(=O)[C@H](CC(C)C)NC(=O)[C@H](Cc1c[nH]c2ccccc12)NC(=O)[C@H](CCCCN)NC(=O)[C@H](CCC(=O)O)NC(=O)[C@H](CCC(=O)O)NC(=O)[C@H](COP(=O)(O)O)NC(=O)[C@H](CO)NC(=O)[C@@H](N)CC(=O)O)C(=O)N[C@@H](CCCNC(=N)N)C(=O)N[C@@H](CCCNC(=N)N)C(=O)N[C@@H](CCCCN)C(=O)N[C@@H](CCCNC(=N)N)C(=O)N[C@@H](CCCNC(=N)N)C(N)=O) [Example 1-2],Average particle diameter,[2],250 nm
same,Kd,[3],1400 nM
same,Kd,[4],1.3 nM
DSpSEEKW-WEWWEWW-RRK(Tfa)RR (DS[pS]EEKWWEWWEWWRRK(Tfa)RR-NH2; N-terminus assumed; SMILES N=C(N)NCCC[C@H](NC(=O)[C@H](CCCNC(=N)N)NC(=O)[C@H](CCCCNC(=O)C(F)(F)F)NC(=O)[C@H](CCCNC(=N)N)NC(=O)[C@H](CCCNC(=N)N)NC(=O)[C@H](Cc1c[nH]c2ccccc12)NC(=O)[C@H](Cc1c[nH]c2ccccc12)NC(=O)[C@H](CCC(=O)O)NC(=O)[C@H](Cc1c[nH]c2ccccc12)NC(=O)[C@H](Cc1c[nH]c2ccccc12)NC(=O)[C@H](CCC(=O)O)NC(=O)[C@H](Cc1c[nH]c2ccccc12)NC(=O)[C@H](Cc1c[nH]c2ccccc12)NC(=O)[C@H](CCCCN)NC(=O)[C@H](CCC(=O)O)NC(=O)[C@H](CCC(=O)O)NC(=O)[C@H](COP(=O)(O)O)NC(=O)[C@H](CO)NC(=O)[C@@H](N)CC(=O)O)C(N)=O) [Example 1-3],Average particle diameter,[2],350 nm
GRSHHKRK-LLELLELL-HRHHVQER (GRSHHKRKLLELLELLHRHHVQER; a peptide designed to have two hydrophilic regions and a hydrophobic region located therebetween) [Example 2-1],"Average particle diameter, pH 6",[5],440 nm
same,"Average particle diameter, pH 7",[5],4 nm
HHIRRKRQ-WWEWWEWW-HGDHHKSN (HHIRRKRQWWEWWEWWHGDHHKSN; a peptide designed to have two hydrophilic regions and a hydrophobic region located therebetween) [Example 2-2],"Average particle diameter, pH 6",[5],"4,400 nm"
same,"Average particle diameter, pH 7",[5],210 nm
KGKILRPR-AAAAAAAA (KGKILRPRAAAAAAAA-NH2) [1-8],Average particle diameter,[2],">1,000 nm"
KGKILRPR-AAEAAEAA (KGKILRPRAAEAAEAA-NH2) [1-7],Average particle diameter,[2],520 nm
KGKILRPR-FFFFFFFF (KGKILRPRFFFFFFFF-NH2) [1-4],Average particle diameter,[2],50 nm
KGKILRPR-LLELLELL (KGKILRPRLLELLELL-NH2) [Reference Example 1-5],Average particle diameter,[2],5 nm
KGKILRPR-LLLLLLLL (KGKILRPRLLLLLLLL-NH2) [1-1],Average particle diameter,[2],36 nm
KGKILRPR-WWEWWEWW (KGKILRPRWWEWWEWW-NH2) [1-6],Average particle diameter,[2],10 nm
KGKILRPR-WWWWWWWW (KGKILRPRWWWWWWWW-NH2) [1-3],Average particle diameter,[2],920 nm
KGKILRPR-YYYYYYYY (KGKILRPRYYYYYYYY-NH2) [1-2],Average particle diameter,[2],210 nm
"RRKRR [Rgp-binding peptide A, reference compound]",Kd,[4],400 nM
RRKRR [Rgp-binding peptide A (RRKRR)],Kd,[6],400 nM
B1,Kd,[7],1.3 nM
